From article PMC9873567 (2022)
Read-outs that look alike come from different tables or passages of the source. One block for each molecule: values may come before it.

Experiments:
[1] = biological target: ERECTA (UniProt Q42371); assay: anti-MYC co-IP, anti-HA blot
[2] = biological target: T1, GST-PUB31 (Arabidopsis thaliana, UniProt Q9FHN9 1-444); assay: BLI
T1 chain: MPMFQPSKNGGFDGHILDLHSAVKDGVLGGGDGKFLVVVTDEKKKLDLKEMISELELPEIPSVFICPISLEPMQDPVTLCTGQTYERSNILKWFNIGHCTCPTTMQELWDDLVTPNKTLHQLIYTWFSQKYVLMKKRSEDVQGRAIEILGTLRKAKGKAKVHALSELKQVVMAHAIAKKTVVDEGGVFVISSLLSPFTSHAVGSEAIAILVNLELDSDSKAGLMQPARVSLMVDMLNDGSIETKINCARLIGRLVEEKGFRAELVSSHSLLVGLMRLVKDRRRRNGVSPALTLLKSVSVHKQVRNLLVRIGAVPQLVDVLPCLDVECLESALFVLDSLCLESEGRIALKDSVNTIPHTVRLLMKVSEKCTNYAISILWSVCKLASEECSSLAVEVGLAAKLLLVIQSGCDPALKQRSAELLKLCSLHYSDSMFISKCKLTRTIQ

[3] = biological target: T2, GST-PUB30 (Arabidopsis thaliana, UniProt Q058P4 1-448); assay: BLI
T2 chain: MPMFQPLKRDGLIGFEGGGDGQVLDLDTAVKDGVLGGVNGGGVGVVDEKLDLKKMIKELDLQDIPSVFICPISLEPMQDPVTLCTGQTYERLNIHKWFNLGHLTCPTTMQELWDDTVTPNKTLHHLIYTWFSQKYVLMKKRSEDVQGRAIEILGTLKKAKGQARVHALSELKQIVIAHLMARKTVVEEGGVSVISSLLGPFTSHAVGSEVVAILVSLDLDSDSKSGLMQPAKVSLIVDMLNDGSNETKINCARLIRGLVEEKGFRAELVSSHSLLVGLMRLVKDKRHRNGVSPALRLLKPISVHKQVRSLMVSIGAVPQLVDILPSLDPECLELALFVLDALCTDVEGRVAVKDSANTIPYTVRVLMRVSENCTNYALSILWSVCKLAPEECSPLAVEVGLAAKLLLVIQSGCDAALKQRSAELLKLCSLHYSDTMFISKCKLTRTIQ

[4] = biological target: T1, GST-PUB31; assay: BLI
[5] = biological target: T2, GST-PUB30; assay: BLI

Molecule: PUB31 (from UniProt Q9FHN9) PUB31 T151A-MYC
binding against the reference ([1]; reference: wild type PUB31-MYC, sites T151): weaker

B1: MBP-BAK1_CD (domain or fragment)
chain: AWWRRKKPQDHFFDVPAEEDPEVHLGQLKRFSLRELQVASDNFSNKNILGRGGFGKVYKGRLADGTLVAVKRLKEERTQGGELQFQTEVEMISMAVHRNLLRLRGFCMTPTERLLVYPYMANGSVASCLRERPESQPPLDWPKRQRIALGSARGLAYLHDHCDPKIIHRDVKAANILLDEEFEAVVGDFGLAKLMDYKDTHVTTAVRGTIGHIAPEYLSTGKSSEKTDVFGYGVMLLELITGQRAFDLARLANDDDVMLLDWVKGLLKEKKLEALVDVDLQGNYKDEEVEQLIQVALLCTQSSPMERPKMSEVVRMLEGDGLAERWEEWQKEEMFRQDFNYPTHHPAVSGWIIGDSTSQIENEYPSGPR
Kd [2]: 2 µM
Kd [3]: 2.4 µM

Continued, values first:

binding against the reference ([1]; reference: wild type PUB30-MYC, sites T155): weaker
Molecule: PUB30 (from UniProt Q058P4) PUB30 T155A-MYC

Kd [4]: 11 µM
Kd [5]: 15 µM
B2: MBP-ERECTA_CD (domain or fragment)
chain: CRPHNPPPFLDGSLDKPVTYSTPKLVILHMNMALHVYEDIMRMTENLSEKYIIGHGASSTVYKCVLKNCKPVAIKRLYSHNPQSMKQFETELEMLSSIKHRNLVSLQAYSLSHLGSLLFYDYLENGSLWDLLHGPTKKKTLDWDTRLKIAYGAAQGLAYLHHDCSPRIIHRDVKSSNILLDKDLEARLTDFGIAKSLCVSKSHTSTYVMGTIGYIDPEYARTSRLTEKSDVYSYGIVLLELLTRRKAVDDESNLHHLIMSKTGNNEVMEMADPDITSTCKDLGVVKKVFQLALLCTKRQPNDRPTMHQVTRVLGSFMLSEQPPAATDTSATLAGSCYVDEYANLKTPHSVNCSSMSASDAQLFLRFGQVISQNSE
